The experiment deals with PA-U7 (Bacillus anthracis, UniProt P13423 30-764).

The Kd is the constant that tells how readily two partners part at equilibrium. The low end stands for higher affinity, the high end for lower affinity.

Where “and” joins values, the source holds several entries; their conditions need not be identical. Identical values can stand only once.

B1: CMG2 on CHO CMG2-C4 cells (receptor)
chain: not shown
Turning to B1, the Kd is 8 nM and 12 nM.

B2: TEM8 on CHO TEM8-T4 cells (receptor)
chain: not shown
Turning to B2, the Kd was 25 nM and 35 nM.

The record behind these values is patent US20180250376A1 (US Dept. of Health and Human Services, published 2018).
